This note sets out measurements from patent publication US20180086841A1 (Merck Sharp & Dohme, published 2018).

Holding throughout (experiment): flow cytometry on CHO-K1 transfectants;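 note: Anti-hCD27 antibodies tested on transiently transfected CHO-K1 cells bearing hCD27 alanine mutants, 30 min at 4 °C primary incubation, FITC readout excluding debris, dead cells and doublets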
One experiment addresses T1, K38A.
T1 construct: also called hCD27 K38A
T1 receptor chain: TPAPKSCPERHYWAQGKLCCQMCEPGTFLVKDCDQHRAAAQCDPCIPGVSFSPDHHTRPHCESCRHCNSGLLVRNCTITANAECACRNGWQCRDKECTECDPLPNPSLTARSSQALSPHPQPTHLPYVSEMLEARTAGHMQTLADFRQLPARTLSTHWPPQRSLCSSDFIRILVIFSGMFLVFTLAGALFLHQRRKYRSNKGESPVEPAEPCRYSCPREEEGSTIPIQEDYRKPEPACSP

The next experiment deals with T2, H36A.
T2 construct: also called hCD27 H36A
T2 receptor chain: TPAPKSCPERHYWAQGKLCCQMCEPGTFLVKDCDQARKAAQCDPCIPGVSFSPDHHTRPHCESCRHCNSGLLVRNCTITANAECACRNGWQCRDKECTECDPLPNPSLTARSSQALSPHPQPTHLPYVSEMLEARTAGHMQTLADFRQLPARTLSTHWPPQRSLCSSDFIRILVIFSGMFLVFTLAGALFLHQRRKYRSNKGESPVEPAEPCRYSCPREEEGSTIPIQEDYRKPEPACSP

The target in a further experiment is T3, V30A.
T3 construct: also called hCD27 V30A
T3 receptor chain: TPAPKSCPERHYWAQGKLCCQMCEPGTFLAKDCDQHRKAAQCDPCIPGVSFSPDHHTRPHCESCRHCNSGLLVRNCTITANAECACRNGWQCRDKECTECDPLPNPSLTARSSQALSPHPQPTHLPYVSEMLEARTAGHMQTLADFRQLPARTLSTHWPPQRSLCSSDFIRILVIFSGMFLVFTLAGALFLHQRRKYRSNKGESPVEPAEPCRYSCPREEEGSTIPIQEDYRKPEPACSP

A further experiment deals with T4, Q91A.
T4 construct: also called hCD27 Q91A
T4 receptor chain: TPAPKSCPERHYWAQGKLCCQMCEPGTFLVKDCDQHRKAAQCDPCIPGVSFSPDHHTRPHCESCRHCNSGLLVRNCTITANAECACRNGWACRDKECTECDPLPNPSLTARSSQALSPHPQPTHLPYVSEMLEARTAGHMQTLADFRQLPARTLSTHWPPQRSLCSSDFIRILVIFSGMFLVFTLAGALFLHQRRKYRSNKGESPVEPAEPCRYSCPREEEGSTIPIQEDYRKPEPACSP

The next experiment addresses T5, W90A.
T5 construct: also called hCD27 W90A
T5 receptor chain: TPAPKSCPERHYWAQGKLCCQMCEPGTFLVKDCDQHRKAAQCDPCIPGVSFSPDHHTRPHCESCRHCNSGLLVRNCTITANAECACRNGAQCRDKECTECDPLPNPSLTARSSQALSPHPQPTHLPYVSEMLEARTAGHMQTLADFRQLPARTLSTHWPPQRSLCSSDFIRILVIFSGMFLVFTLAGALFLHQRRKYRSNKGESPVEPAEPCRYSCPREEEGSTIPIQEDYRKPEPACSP

A further experiment has as its target T6, I46A.
T6 construct: also called hCD27 I46A
T6 receptor chain: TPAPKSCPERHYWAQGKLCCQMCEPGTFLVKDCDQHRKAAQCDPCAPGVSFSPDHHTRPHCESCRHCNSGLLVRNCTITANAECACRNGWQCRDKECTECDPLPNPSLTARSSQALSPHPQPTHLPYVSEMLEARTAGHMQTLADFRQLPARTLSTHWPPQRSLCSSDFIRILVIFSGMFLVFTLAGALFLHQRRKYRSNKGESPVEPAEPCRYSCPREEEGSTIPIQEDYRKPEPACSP

For the next experiment, the target named is T7, H60A.
T7 construct: also called hCD27 H60A
T7 receptor chain: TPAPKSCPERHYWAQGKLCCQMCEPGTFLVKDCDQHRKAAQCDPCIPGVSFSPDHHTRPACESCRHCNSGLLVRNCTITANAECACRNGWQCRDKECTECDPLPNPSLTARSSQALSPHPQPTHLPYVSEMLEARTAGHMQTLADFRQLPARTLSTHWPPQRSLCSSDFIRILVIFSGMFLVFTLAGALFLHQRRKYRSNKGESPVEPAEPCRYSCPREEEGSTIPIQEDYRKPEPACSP

For the next experiment, the target named is T8, R93A.
T8 construct: also called hCD27 R93A
T8 receptor chain: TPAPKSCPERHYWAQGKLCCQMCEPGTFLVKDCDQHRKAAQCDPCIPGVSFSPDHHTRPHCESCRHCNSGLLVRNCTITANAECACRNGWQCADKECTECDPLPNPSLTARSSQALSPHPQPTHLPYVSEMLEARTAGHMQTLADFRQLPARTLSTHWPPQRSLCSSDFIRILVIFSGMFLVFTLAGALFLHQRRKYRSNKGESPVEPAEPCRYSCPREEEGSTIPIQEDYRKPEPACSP

The next experiment deals with T9, D32A.
T9 construct: also called hCD27 D32A
T9 receptor chain: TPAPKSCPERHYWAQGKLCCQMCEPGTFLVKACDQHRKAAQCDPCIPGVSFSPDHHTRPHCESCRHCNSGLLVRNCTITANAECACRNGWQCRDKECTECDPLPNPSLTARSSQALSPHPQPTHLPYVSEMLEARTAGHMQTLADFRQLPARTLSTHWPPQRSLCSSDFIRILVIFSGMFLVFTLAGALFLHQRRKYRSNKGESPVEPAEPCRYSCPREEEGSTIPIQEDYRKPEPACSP

The target in another experiment is T10, K17A.
T10 construct: also called hCD27 K17A
T10 receptor chain: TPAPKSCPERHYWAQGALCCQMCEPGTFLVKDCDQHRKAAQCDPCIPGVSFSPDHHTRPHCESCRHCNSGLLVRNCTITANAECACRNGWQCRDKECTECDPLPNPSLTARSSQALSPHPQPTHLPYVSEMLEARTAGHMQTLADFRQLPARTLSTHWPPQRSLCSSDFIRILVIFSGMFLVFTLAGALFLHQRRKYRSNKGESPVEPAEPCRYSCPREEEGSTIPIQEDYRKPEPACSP

Procedure for D32A: (§1) The hCD27 variants that were tested are listed. Amino acids correspond to the UniProt P26842-1 sequence. Amino acids 1-20 constitute the signal peptide. Binding is expressed as the geometric mean of the FITC signal, relative to antibody binding to hCD27, which was set at 100%.
(§2) The ability of several anti-hCD27 antibodies to bind to a series of hCD27 alanine mutants was determined using CHO-K1 cells, transiently transfected pCI-neo empty vector, pCI-neo.hCD27 and several pCI-neo.CD27Ala mutant constructs.
(§3) Detached cells were transferred to 96 wells round-bottomed well plates at approximately 1.2×10⁵ cells/well. After spinning down the cells, discarding the supernatants and re-suspending the cells in the residual volume, the primary antibodies were added and incubated for 30 minutes at 4° C. Cells were washed three times with DPBS/BSA 1%, followed by centrifugation, discarding of the supernatants and re-suspension in the residual volume. […] After washing once, antibody binding was detected using the HTS plate reader (FACS Canto II) and FlowJo software for data analysis. Debris, dead cells and doublets were excluded from the analysis. Binding was expressed as the geometric mean of the FITC signal, relative to antibody binding to hCD27, which was set at 100%.
Procedure for H36A: as §1, §2, §3
Procedure for H60A: as §1, §2, §3
Procedure for I46A: as §1, §2, §3
Procedure for K17A: as §1, §2, §3
Procedure for K38A: as §1, §2, §3
Procedure for Q91A: as §1, §2, §3
Procedure for R93A: as §1, §2, §3
Procedure for V30A: as §1, §2, §3
Procedure for W90A: as §1, §2, §3

B1: hCD27.15-6B (antibody, human IgG4 S228P, kappa, V domains shown)
VH: QVQLVQSGAEVKKPGASVKVSCKASGFIIKATYMHWVRQAPGQRLEWMGRIDPANGETKYDPKFQVRVTITADTSASTAYMELSSLRSEDTAVYYCARYAWYFDVWGQGTLVTVSS
VL: DIQMTQSPSSLSASVGDRVTITCRASENIYSFLAWYQQKPGKAPKLLIYHAKTLAEGVTSRFSGSGSGTDFTLTISSLQPEDSATYYCQHYYGSPLTFGQGTRLEIKR
notes: also called hCD27.15 (humanized 6B); humanized hCD27.15 (human IgG4, Clone 6B)
B1: the “binding, WT hCD27 = 100 (GM FITC)” value with K38A was determined as 97.6%; in the experiment with H36A it was 122%; with V30A it was 82.6%; in the experiment with Q91A, 136%; with W90A, 93.8%; with I46A it was 81.9%. In addition, the “binding, WT hCD27 = 100 (GM FITC)” value in the experiment with H60A was 82.6%; with R93A, 131%; with D32A, 50.6%; in the experiment with K17A it was 120%.
